Laboratory results: the supplement of paper PMC12764529
± gives the half width of the 95% confidence interval.

Tests used:
[1] = folding stability dG unfold from chymotrypsin proteolysis; higher = more stable
Summary of the method: (§1)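 Bayesian fitting of sequencing counts gave K50 for each design. Unfolding free energy followed by setting this against a sequence-predicted unfolded-state K50 and a shared folded-state K50, either per protease or with trypsin and chymotrypsin combined. The designs, under 80 residues and lacking cysteine, were digested in a PA-tagged cDNA display format at 11 threefold-diluted protease concentrations and without protease, and only those with AlphaFold2 dimer inter-PAE above 15 were kept.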

[2] = folding stability dG unfold (combined trypsin and chymotrypsin); higher = more stable
Summary of the method: as §1

[3] = folding stability dG unfold from trypsin proteolysis; higher = more stable
Protocol: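 Folding stability of de novo designed mini-proteins (<80 aa, no Cys; designed by TrROS, TrMRF, ProteinMPNN and the joint model) was measured by cDNA display proteolysis with trypsin and chymotrypsin. Each protease was used at 11 concentrations in a threefold dilution series plus a no-protease condition. K50 was inferred by Bayesian fitting of sequencing counts, and dG unfold was derived against a sequence-predicted unfolded-state K50 (Tsuboyama et al. method). Sequences shown include variable-length N-terminal GS-type padding (SAGGSAGG...) inside a display construct carrying a PA tag. Rows were kept only if the AF2 dimer inter-PAE was >15, to exclude likely homo-oligomers.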

Sequence | folding stability dG unfold [1] [kcal/mol] | folding stability dG unfold [2] [kcal/mol] | folding stability dG unfold [3] [kcal/mol]
AATTATVTLPFAPDDLDAAVEAARELASTLPPDSRITVAVPAPDGSTGTVTATVHPDGTIDVTVSPAAAPAS [r1_350_TrMRF] | 1.47 ± 0.04 | 1.19 ± 0.1 | 0.731 ± 0.019
AELEAEVVSVEEVNGETVVVVRVDGELVVRTFRPPPPRPLSLEELKRLAEELREQNPELAEEAEKLLEALAS [r1_330_TrROS_Hall] | 2.19 ± 0.11 | 2.33 ± 0.26 | 2.49 ± 0.12
AKLPEGAKVVIEVRRADDGETRTITLDDDVTITITYDKDTGKVEVRAYVFDKNGKLVAEETLTLSLEELLSS [r1_380_TrROS_Hall] | 3.508 ± 0.017 | 3.1 ± 0.067 | 1.77 ± 0.027
APARPPDWVLVDVPVDPTSGLITVHAGDATVTVDLPDGRPAVFYFPRSVSPSDLLAWVVGKARELAEALRAS [r1_25_TrMRF] | 2.32 ± 0.19 | 2.23 ± 0.16 | 1.9 ± 0.085
APKPPVLVVEVVVLFPKEDPEVRELTVEEIAELAAEELTAHPDFKPVKVEVLSAEEHPDGYYTVTLKVTHVS [r1_484_TrMRF] | 2.4 ± 0.036 | 2.42 ± 0.1 | 2.51 ± 0.15
DLDITDPALVPVPERNYPFTVVSLTGPGNGAVTVELTLDGQTVSATVDPSTGTVTFTFPGTGASAVATADPS [r1_125_TrMRF] | 1.61 ± 0.08 | 1.68 ± 0.12 | 1.69 ± 0.087
DYRVVIEDLELVPAPPGTRISMPAWVDHDGVRYGEVESYVDPETGTVTLRLLVEPDGEPRELTLTLPVPPES [r1_47_TrMRF] | 0.629 ± 0.061 | 0.625 ± 0.061 | 0.545 ± 0.034
EEEVEELAKKLEEELRKKLRELFPEMSEEDIKIEEIEVEKTVTVEVNGEKKEIKVKVKIKMSEEVLERLKKS [r1_299_TrROS_Hall] | 2.09 ± 0.33 | 1.72 ± 0.42 | 1.98 ± 0.14
EITIRNPNGMEVKKVEFDPPDSTIKFEFRMPDYYVKIEFQIYPVGGGWVIPIKIEIVPIPPTPAQRKKMQES [r1_154_TrROS] | 3.4 ± 0.17 | 2.85 ± 0.25 | 1.44 ± 0.13
EVETYPDGTVVTTLPPEVTADIPADEPVNLRTLIFDPDGYLYLSTATRTPDGTVTYTVSITPIPVGPELLLS [r1_394_JUSTAS] | 1.63 ± 0.083 | 1.54 ± 0.077 | 1.44 ± 0.029
GFDEAELKKLLEEKAAELEKKGYKVLKTSIEPVPDGTYGGKIGNKTITHPTPNGLTYSVSVYYEKVSPKKKS [r1_31_JUSTAS] | 0.331 ± 0.25 | 0.351 ± 0.16 | 0.232 ± 0.13
KVFSVDELRELAKKGKLKELLKKNKDVTIVVEEGSPEELKELKALPEVKEIKVVPKEDEEKIKKAKLVIKVS [r1_248_TrROS_Hall] | 0.0786 ± 0.69 |  | 0.312 ± 0.17
MPTIRVKIYRDGKLVRELELPAEEVEKMSEEELLEKVRELLEEEKGETYKVEVEIDGKKFTFEIKLPEKEES [r1_477_TrROS_Hall] | 4.8 ± 0.24 |  | 4.33 ± 0.39
SAGGMLTPEEIERLARELEEAIRRGDRERAEELLEKLEELLKQAEEEGDEELVERLKKLLERAKKALESAGG [r13_137_TrROS_Hall] | 2.99 ± 0.19 |  | 4.85 ± 0.55
SAGGSAGGSAGEIDKIKVEVEFEFPVRVKVGDKEYEFLVKVKYTIGPDGKIEVKSIELFPSAGGSAGGSAGG [r11_95_TrMRF] | 4.76 ± 0.38 |  | 3.69 ± 0.24
SAGGSAGGSAGGSFSVSVSYDPSTGNIVIRIDLPDGSTITITINPATGEISVSSSSSSSSAGGSAGGSAGGS [r10_127_TrMRF] | 3.83 ± 0.25 |  | 4.13 ± 0.28
SAGGSMKTYKLESEEEIEKLIKELSPEKYIVGVKGNPDGTPVVYIFPKSEPEKLKKLGVKEIIPVKSAGGSA [r2_351_JUSTAS] | -0.109 ± 0.57 |  | -0.442 ± 0.46
SAGKEIKIRIEVTRKVKNPETGEEVEEKEVVEITLSEEELKKGKSLEELAKELASKYPGAKVKIVEIESAGG [r19_110_TrROS_Hall] | 3.08 ± 0.49 |  | 4.43 ± 0.48
SAGMKELVLVERDAPVLGVYLDPETGRPRLEPRPVPVVVVVEVEPDSEAARELAEKLAPEDVRVEVLPASAG [r5_468_TrMRF] |  | -0.483 ± 0.24 | 0.164 ± 0.05
SAGMKFKPGAKVEVYNKKTKKKIVLPVEELRKLAREKFGVETEEERLAEAIKEKAKENGFEIVKIEPVSAGG [r19_67_TrROS_Hall] |  | -0.0445 ± 0.44 | -0.166 ± 0.35
SAGMSSSEVIDIDAGPEKLKELVAKIKKESPNYTIVVTDPETGKPTLLDPSELKNIPGPVKLTITKYPQSAG [r5_437_JUSTAS] |  | < -1 | -1.16 ± 0.66
SAGMTTETTEKTAPDGKTRTTTVTYPSEEKAADTTTVVVTETPVETDGSERILTTTTVYKNGVKVATTGSAG [r14_958_JUSTAS] |  | < -1 | -0.851 ± 0.56
SAGMTVEVEIELPPGMTEEERLEEVKALVEELARALLPPGWKVTVKEIEVEEKDGKLVVKVKIEIEPEESAG [r5_146_TrROS_Hall] | 2.99 ± 0.22 |  | 3.96 ± 0.28

Sequence | folding stability dG unfold [1] [kcal/mol] | folding stability dG unfold [2] [kcal/mol] | folding stability dG unfold [3] [kcal/mol]
SAGNIKKGSIYMPEDGWMIKIEYPDPGKEIHIPFDDDLSEIKDNLEEPGFEPVAVEVEPFPPGQPMEISAGG [r19_386_TrROS] |  | < -1 | -1.05 ± 0.22
SAGNPKIIEEETIPMPDGGPMKIYVDPEAPRIEIYNPDNGKPEEFPIPPGEKLEFPMPPDGWMTVKVLSAGG [r19_118_TrROS] |  | < -1 | -0.279 ± 0.14
SAGSMEVKVEIPEEVLKKIESAPPGTVVEYTETVTITTTTTIPGPGNPVPLTSTTPSPIKLTYTKPSSPSAG [r5_946_JUSTAS] |  | -0.915 ± 0.31 | -0.608 ± 0.06
SAKPIPAKDITINMHPPPGGNFNFEIELDDKEIGEHPFKSPEDMQEGMKEIAKELAALLGPDDIKIKPWSAG [r14_791_TrROS] |  | -0.0161 ± 0.25 | 0.4 ± 0.075
SAKVFTAEEIKALAEELEKAGLEVEAVVLDKDGKIVAVAPKELLKPPPVEEVKEVKVEVEDDPEKLKAAKSA [r9_568_TrROS_Hall] |  | < -1 | -0.442 ± 0.97
SALINLKKEDVEKLVKALEKEGNYKVKIKPVKVVYKPKDGSKKPIGAVKIEVIDPDNPKSLLDKIKKAGSAG [r14_628_TrMRF] |  | < -1 | -1.29 ± 0.62
SAMIKIEIVLPEEDLEKLLESEEVKELAKELEKKTGLKITSIKIEKKEVEVNGEKKKVVVITIEIEPEPSAG [r14_819_TrROS_Hall] |  | > 6 | 3.42 ± 0.24
SAMKTTETITVTVEMEPEVAEEVAEEIAEKIEKEKNYEITEVKVSVFPTDGKYVVRVPIKITYPTPELKSAG [r14_219_JUSTAS] |  | < -1 | -0.771 ± 0.42
SAMTTLEKEGDVTITRTKLPDGTVVVTTEVPESRPLAELTTETITIYPDGTVTTTSQTLTLDPATGRLGSAG [r14_724_JUSTAS] |  | -0.567 ± 0.23 | -0.146 ± 0.075
SARPLTIMNPDGMMYRLDPDEGEIEFQNASDGEELKIKVKPKGNGVEIDIEFNGQPHEHKIPKGDWIMIPSA [r9_239_TrROS] |  | 0.157 ± 0.33 | 0.662 ± 0.088
SASLENGGVKTVEDTEYDPATNTVTFKKVTTYYGDEVLSTSTATVPLPPKPLPPPPVVERDPTNPRYLESAG [r14_571_JUSTAS] |  | < -1 | -0.368 ± 0.91
SDDLSTTVTVTTPGGPTLTLTFPSNASVSTSPIDENSIVITFPGYEAVVEIAPGGKPRLKEVSEKEPVDSSA [r9_773_JUSTAS] |  | < -1 | -0.534 ± 0.2
SDTVHIPIDPNDPDEIKDLIKNLPPGWTVHIWWPDKNGEWPVVTIKVKPPPPPPIPPEDLPEEQRKEMKKSA [r9_1103_TrROS] | 0.718 ± 0.11 |  | 0.398 ± 0.24
SEALILDPNVETVSPVFYLLLSPEEAEERARELREELRAELEAAGLPLPEDVVIEVVPAESEEELRALLESA [r9_204_JUSTAS] |  | 0.00109 ± 0.18 | 0.5 ± 0.049
SGPDVPLTPEEVAARIKAELLEKHPIGEVTPVELREFPELGVVEVRLRINVKGPPGETREIDVRLSRERLSA [r9_1002_JUSTAS] |  | 0.0428 ± 0.21 | 0.694 ± 0.13
SGSMTPLTVEREVDITVVETRFLPNGGEVKKRRVTVTTTVTLPGGVPVSTQTTTIESPDLSEEEILERLSSA [r9_371_JUSTAS] |  | -0.752 ± 0.15 | 0.357 ± 0.051
SIEELAKKFPNVTVTVEKTEDGEVKITITVKTSEEQKKELQEKLKELAKKLAEELDLKVEIEIKVLPAPPSA [r9_1099_TrROS_Hall] | 3.7 ± 0.38 |  | 3.86 ± 0.26
SKKWKVDLDIQEDPDNGTVIGMVRVESEDGEKRPPPEEIARELAEKLREKGYKVEAEPHPGWFMITVKPPSA [r9_510_TrROS] |  | 0.153 ± 0.48 | 0.371 ± 0.24
SMPKVVKTVKITKSEAKEFLEKLDIGPDKSVTILETDPNGKSSLHTIGPNKILSSEPVDTLPNTWTIEISSA [r9_849_JUSTAS] |  | -0.416 ± 0.35 | -0.0776 ± 0.13
SMPVTFTMKTPENRKKLEEAIKEIEEEYPIKVEEVEKDPKGTYTYKVEMDPEIIEKVKKKLEEAGNVTLESA [r9_472_JUSTAS] |  | -0.822 ± 0.97 | -0.343 ± 0.23
SMVKAKVEVNPETNAAVVEFELPELKVIALRVFDENNEVHTLVEVEIPPGPRVPLAEIPLKPNEELVLPLSA [r9_1172_TrMRF] |  | -0.685 ± 0.76 | 0.0917 ± 0.26
SSPGLVEVTIPLKIVLEPLAPDGTPAPRPVATVPIKTAASSEDPSAIEQAKEDVIKELKPEFPDAKFVVESA [r9_1112_JUSTAS] |  | < -1 | 0.223 ± 0.065
